# Test results: patent publication US20260217847A1 (published 2026)
# Residue numbers refer to the chain shown, from its start.
# B1: anti-humanized TfR1 single-domain antibody-Fc fusion antibody 4D11-hFC1 (Fc fusion)
# chain (part 1 of 2): ESGGGLVQPGESLRLSCVASGSIWSIYTMGWYRQAPGKQRDFVASITRDSTRTLESVKDRFIISRDNAKNTLYLQMNSLKPEDTAVYYCHAITSLGEYWGQGTQVTVSS
# B2: anti-humanized TfR1 single-domain antibody-Fc fusion antibody 4C5-hFC1 (Fc fusion)
# chain (part 1 of 2): ESGGGLVQPGESLRLSCAASGSIWSIYTMGWYRQAPGLQRDFVGSIAREGGRRYAESVKDRFTISRDNAKNTMYLQMNSLKREDTAVYYCNAITSLGEYWGQGTQVTVSS
# B3: anti-humanized TfR1 single-domain antibody-Fc fusion antibody 8E10-hFC1 (Fc fusion)
# chain (part 1 of 2): ESGGGLVQAGGSLRLSCAFSGPPFSTYGMGWFRQAPGKEREFVATISGSGFTTTYADSVKGRFTISRDNAKNTVYLQMNSLKPGDTAVYYCAAGVLDGTNWHEYDYWGQGTQVTVSS
# B4: anti-humanized TfR1 single-domain antibody-Fc fusion antibody 2H7-hFC1 (Fc fusion)
# chain (part 1 of 2): B1 chain (part 1 of 2) with R48G, A68T, H90Q
# B5: anti-humanized TfR1 single-domain antibody-Fc fusion antibody 5A3-hFC1 (Fc fusion)
# chain (part 1 of 2): ESGGGLVQAGGSLTLSCAVSRRAFNTKAMGWFRQAPGKEREFVATISWSGFSTNYADSVKGRFTISRDNAKNTVYLQMNSLKPGDTAVYYCAAGVLDGTNWHEYDYWGQGTQVTVSS
# B6: anti-humanized TfR1 single-domain antibody-Fc fusion antibody 7G10-hFC1 (Fc fusion)
# chain (part 1 of 2): ESGGGLVQAGASLKLSCNGSGRTFISYAMGWFRQAPGKQREFVAAERWSGSGIYYADSLKGRFTISRDNAKNTVYLEMNNLKPEDTAVYYCAAREGGLLHVATSYDYWGQGTQVTVSS
# B7: anti-humanized TfR1 single-domain antibody-Fc fusion antibody 5D3-hFC1 (Fc fusion)
# chain (part 1 of 2): ESGGGLVEPGGSLRLSCAASGNIFSINNMYWHRQAPGKQRELVGGITRGGITNYVDSVKGRFTISRDNAKNTVYLQMNSLKPEDTAVYFCNAHPWRLGIADYWGQGTQVTVSS
# B8: anti-humanized TfR1 single-domain antibody-Fc fusion antibody 7D10-hFC1 (Fc fusion)
# chain (part 1 of 2): ESGGGLVQPGGSLRLSCATSGGTFEMYAMAWFRQAPGKDREGVAGFSWRDSSTTYYSDSVKGRFTISRDNAKNTVYLQMNSLKPEDTAVYYCAARPYVSRWSESSGYDYWGQGTQVTVSS
# B9: anti-humanized TfR1 single-domain antibody-Fc fusion antibody 7G5-hFC1 (Fc fusion)
# chain (part 1 of 2): ESGGGSVQPGGSLRLSCAVSGSIFSIDTMAWYRQAPGKQRELVAAITKGGSRNYADSVKGRFTISRDNAKNTVYLQMNSLKPEDTAVYYCLADRLFRDRSWGQGTQVTVSS
# B10: anti-humanized TfR1 single-domain antibody-Fc fusion antibody 7A3-hFC1 (Fc fusion)
# chain (part 1 of 2): B2 chain (part 1 of 2) with A18V, L38K, G44A, A47T, E49D, G50S, M73L, M77T, R82P, N91H
# B11: anti-humanized TfR1 single-domain antibody-Fc fusion antibody 5D1-hFC1 (Fc fusion)
# chain (part 1 of 2): B2 chain (part 1 of 2) with A18V, L38K, G44A, A47T, E49D, Y54H, M73L, R82P, Y89S, N91L
# Target: T1, human recombinant TfR1 protein (amino acids 89-760) (human, UniProt P02786 89-760)
# Experiment: ELISA
# T1 sequence (P02786 89-760): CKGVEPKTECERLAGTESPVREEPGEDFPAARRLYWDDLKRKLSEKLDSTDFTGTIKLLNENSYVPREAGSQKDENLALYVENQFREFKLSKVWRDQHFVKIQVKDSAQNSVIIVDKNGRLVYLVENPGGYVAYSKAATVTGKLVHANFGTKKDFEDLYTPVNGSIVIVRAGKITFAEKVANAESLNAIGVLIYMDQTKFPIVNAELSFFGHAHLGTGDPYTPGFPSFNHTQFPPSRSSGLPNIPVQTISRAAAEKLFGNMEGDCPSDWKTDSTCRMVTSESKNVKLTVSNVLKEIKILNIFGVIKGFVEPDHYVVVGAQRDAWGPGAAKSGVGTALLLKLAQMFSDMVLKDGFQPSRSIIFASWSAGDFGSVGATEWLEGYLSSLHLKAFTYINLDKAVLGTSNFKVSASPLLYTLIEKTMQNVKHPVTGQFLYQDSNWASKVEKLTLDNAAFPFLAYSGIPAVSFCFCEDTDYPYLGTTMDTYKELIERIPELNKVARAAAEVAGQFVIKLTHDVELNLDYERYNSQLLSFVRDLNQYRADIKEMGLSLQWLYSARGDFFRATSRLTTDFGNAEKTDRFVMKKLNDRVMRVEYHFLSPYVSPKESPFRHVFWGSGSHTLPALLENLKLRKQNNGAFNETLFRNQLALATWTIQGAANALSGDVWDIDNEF
row,EC50 [nM],Binder
1,0.0592,B1
2,0.0644,B2

# Target: T1, human recombinant TfR1 protein (amino …)
# Experiment: ELISA
# Remark: another data set of the same source
row,EC50 [nM],Binder
1,0.0962,B3
2,0.0396,B4

# Target: T1, human recombinant TfR1 protein (amino …)
# Experiment: ELISA
# Remark: another data set of the same source
row,EC50 [nM],Binder
1,0.0761,B5
2,0.0854,B6
3,0.0861,B7
4,0.151,B8
5,0.0724,B9
6,0.0521,B10
7,0.0595,B11
